Substitutions are numbered along the chain they refer to.

The target of this assay is T1, human FcRn (soluble human FcRn complexed with β2-microglobulin) (human, UniProt P61769 21-119, limits assumed).
T1 construct: also called hFcRn
The assay is described as follows: SPR, pH 7.0.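 Also: antibodies captured on a Protein L sensor chip with human FcRn injected as analyte, KD calculated from fitted association and dissociation rate constants.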 On the technique in general: In SPR one partner is held on a chip, and binding of the other changes the refractive index at the surface.

T1 sequence (chain, as listed by the source limits assumed, chain 1 of 2): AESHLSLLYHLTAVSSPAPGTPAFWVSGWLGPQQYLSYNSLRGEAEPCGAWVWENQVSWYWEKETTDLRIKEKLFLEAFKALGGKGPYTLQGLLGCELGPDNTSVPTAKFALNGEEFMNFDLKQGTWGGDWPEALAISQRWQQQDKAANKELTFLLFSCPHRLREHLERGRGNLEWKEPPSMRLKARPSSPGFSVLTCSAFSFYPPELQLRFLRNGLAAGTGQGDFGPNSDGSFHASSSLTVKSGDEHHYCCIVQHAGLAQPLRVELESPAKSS
T1 sequence (P61769 21-119 limits assumed, chain 2 of 2): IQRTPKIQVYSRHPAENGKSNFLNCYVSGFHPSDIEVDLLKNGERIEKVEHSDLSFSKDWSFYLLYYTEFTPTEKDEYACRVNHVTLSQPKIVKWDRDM
Description: A kinetic analysis of binding between human FcRn and the aforementioned antibodies was carried out using the BIACORE™ T100 or T200 surface plasmon resonance system (GE Healthcare). The antibodies being tested were captured on the CM4 Sensor Chip (GE Healthcare) on which a suitable amount of Protein L (ACTIGEN® protein (Alltech)) was suitably immobilized by amine coupling. Next, diluted human FcRn and a running buffer used as a blank were injected to allow the human FcRn to interact with the antibody captured on the sensor chip. A buffer consisting of 50 mmol/L sodium phosphate, 150 mmol/L NaCl and 0.05% (w/v) polysorbate 20 (Tween 20®) (pH 7.0 or pH 7.4) was used for the running buffer, and each buffer was also used to dilute the human FcRn. 10 mmol/L glycine-HCl (pH 1.5) was used to regenerate the sensor chip. All measurements of binding were carried out at 25° C. The KD(M) of each antibody to human FcRn was calculated based on kinetics parameters, i.e., the association rate constant ka (1/Ms) and the dissociation rate constant kd (1/s) calculated from a sensorgram obtained by the measurement. The BIACORE™ T100 or T200 Evaluation Software (GE Healthcare) was used to calculate each parameter.

B1: IgG1-F277 (antibody)
heavy: QVQLQESGPGLVKPSETLSLTCAVSGHSISHDHAWSWVRQPPGEGLEWIGFISYSGITNYNPSLQGRVTISRDNSKNTLYLQMNSLRAEDTAVYYCARSLARTTAMDYWGEGTLVTVSSASTKGPSVFPLAPSSKSTSGGTAALGCLVKDYFPEPVTVSWNSGALTSGVHTFPAVLQSSGLYSLSSVVTVPSSSLGTQTYICNVNHKPSNTKVDKKVEPKSCDKTHTCPPCPAPELLGGPKVFLFPPKPKDTLYISRTPEVTCVVVDVSHEDPEVKFNWYVDGVEVHNAKTKPREEQYNSTYRVVSVLTPLHQDWLNGKEYKCKVSNKALPAPIEKTISKAKGQPREPQVYTLPPSRDELTKNQVSLTCLVKGFYPSDIAVEWESNGQPENNYKTTPPVLDSDGSFFLYSKLTVDKSRWQQGNVFSCSVYHEALHYHYTQKSLSLSP
light: not shown
notes: EU numbering; copies: 2 + 2
As a reminder, the Kd is the concentration at which binding is half-saturated. The low end stands for tighter binding, the high end for weaker binding. In turn, B1 registered a Kd of 130 nM.

B2: IgG1-F284 (antibody)
heavy: B1 heavy with K241S
light: not shown
notes: EU numbering; copies: 2 + 2
The molecule B2 showed an equilibrium dissociation constant (Kd) of 100 nM.

B3: IgG1-F296 (antibody)
heavy: B1 heavy with K241S, P310V, Q313A
light: not shown
notes: EU numbering; copies: 2 + 2
B3 registered a Kd of 490 nM.

B4: IgG1-F283 (antibody)
heavy: B1 heavy with K241S, E384A
light: not shown
notes: EU numbering; copies: 2 + 2
Regarding B4, binding was characterised by a dissociation constant (Kd) of 100 nM.

B5: IgG1-F282 (antibody)
heavy: B1 heavy with K241S, E384A, Y430L
light: not shown
notes: EU numbering; copies: 2 + 2
On to B5, for which the Kd stood at 29 nM.

B6: IgG1-F297 (antibody)
heavy: B1 heavy with K241S, P310V, D314A
light: not shown
notes: EU numbering; copies: 2 + 2
In the case of B6, the Kd was 510 nM.

B7: IgG1-F278 (antibody)
heavy: B1 heavy with K241S, T309Q, E384A, Y430M
light: not shown
notes: EU numbering; copies: 2 + 2
On to B7, for which the affinity, expressed as Kd, was 30 nM.

B8: IgG1-F293 (antibody)
heavy: B1 heavy with K241S, E382A, E384A, Y430I
light: not shown
notes: EU numbering; copies: 2 + 2
B8 registered a Kd of 53 nM.

B9: IgG1-F287 (antibody)
heavy: B1 heavy with K241S, E382A, E384A, Y430F
light: not shown
notes: EU numbering; copies: 2 + 2
Take B9: binding was put at a Kd of 100 nM.

B10: IgG1-F298 (antibody)
heavy: B1 heavy with K241S, P310V, Q313A, D314A
light: not shown
notes: EU numbering; copies: 2 + 2
In turn, B10 gave a Kd of 480 nM.

B11: IgG1-F290 (antibody)
heavy: B1 heavy with K241S, T258E, P310V, E384A
light: not shown
notes: EU numbering; copies: 2 + 2
Regarding B11, the Kd came to 460 nM.

B12: IgG1-F292 (antibody)
heavy: B1 heavy with E384A, Y430I
light: not shown
notes: EU numbering; copies: 2 + 2
B12 had a Kd of 23 nM.

B13: IgG1-F294 (antibody)
heavy: B1 heavy with Y430F
light: not shown
notes: EU numbering; copies: 2 + 2
The molecule B13 came in with a Kd of 110 nM.

B14: IgG1-F289 (antibody)
heavy: B1 heavy with K241S, T258E, P310V
light: not shown
notes: EU numbering; copies: 2 + 2
B14 gave a Kd of 480 nM.

B15: IgG1-F280 (antibody)
heavy: B1 heavy with D272F, Y430M
light: not shown
notes: EU numbering; copies: 2 + 2
The molecule B15 returned a Kd of 41 nM.

B16: IgG1-F288 (antibody)
heavy: B1 heavy with K241S, T258E, P310V, E384A, Y430M
light: not shown
notes: EU numbering; copies: 2 + 2
The molecule B16 yielded a Kd of 190 nM.

B17: IgG1-F286 (antibody)
heavy: B1 heavy with E384A
light: not shown
notes: EU numbering; copies: 2 + 2
For B17, binding was put at a Kd of 120 nM.

B18: IgG1-F285 (antibody)
heavy: B1 heavy with K241S, Y430F
light: not shown
notes: EU numbering; copies: 2 + 2
For B18, the Kd worked out at 99 nM.

B19: IgG1-F295 (antibody)
heavy: B1 heavy with P310V, E382A, E384A, Y430F
light: not shown
notes: EU numbering; copies: 2 + 2
Turning to B19, binding was characterised by a dissociation constant (Kd) of 680 nM.

B20: IgG1-F279 (antibody)
heavy: B1 heavy with K241S, Q313H, E384A, Y430M
light: not shown
notes: EU numbering; copies: 2 + 2
B20 gave a Kd of 61 nM.
